Twelve molecules from patent publication US20120269817A1 (Bayer, published 2012) can be followed below.

Changes are numbered by the printed parent chain.

T1: human tissue factor pathway inhibitor (TFPI) (human, UniProt P10646 29-304, limits assumed)
T1 sequence (looked up): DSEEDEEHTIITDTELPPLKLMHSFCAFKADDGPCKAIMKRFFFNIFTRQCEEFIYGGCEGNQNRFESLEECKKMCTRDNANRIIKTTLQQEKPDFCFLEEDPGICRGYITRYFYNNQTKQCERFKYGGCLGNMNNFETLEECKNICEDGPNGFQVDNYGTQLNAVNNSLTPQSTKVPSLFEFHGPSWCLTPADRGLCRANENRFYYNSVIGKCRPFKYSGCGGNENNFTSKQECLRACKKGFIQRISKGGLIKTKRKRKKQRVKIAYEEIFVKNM

T2: mouse tissue factor pathway inhibitor (TFPI) (mouse, UniProt O54819 29-289, limits assumed)
T2 construct: Bought protein; also called mouse TFPI; mTFPI
T2 sequence (looked up): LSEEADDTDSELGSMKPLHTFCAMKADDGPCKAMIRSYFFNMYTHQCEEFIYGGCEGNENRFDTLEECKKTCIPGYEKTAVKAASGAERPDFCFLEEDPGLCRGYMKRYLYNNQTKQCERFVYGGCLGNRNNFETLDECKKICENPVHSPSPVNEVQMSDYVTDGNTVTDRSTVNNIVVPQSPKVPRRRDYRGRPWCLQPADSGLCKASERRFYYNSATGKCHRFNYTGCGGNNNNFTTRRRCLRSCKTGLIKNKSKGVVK

B1: TP-3C2 Fab (Fab, V domains shown)
VH: QVQLQQSGPGLVKPSQTLSLTCAISGDSVSSSSAAWSWIRQSPGRGLEWLGMIYYRSKWYNHYAVSVKSRITINPDTSKNQFSLQLNSVTPEDTAVYYCARGGSGVMDVWGQGTLVTVSS
VL: DIQMTQSPSSLSASVGDRVTITCRASQSITNYLNWYQQKPGKAPKLLIYDVSNLQSGVPSRFSGSGSGTDFTLTISSLQPEDFAVYYCQQYSGYPLTFGQGTKVEIKR
notes: Human Fab from HuCal Gold, expressed in E. coli TG1
B2: TP-2G6 Fab (Fab, V domains shown)
VH: B1 VH with M52I, H62D, G102H, G103S, S104M, G105V, V106G, M107F
VL: DIVLTQSPATLSLSPGERATLSCRASQYVTSSYLAWYQQKPGQAPRLLIYGSSRATGVPARFSGSGSGTDFTLTISSLEPEDFATYYCQQYSSSPITFGQGTKVEIKR
notes: as for B1
B3: TP-2H10 Fab (Fab, V domains shown)
VH: QVQLQQSGPGLVKPSQTLSLTCAISGDSVSSNGAAWGWIRQSPGRGLEWLGFIYRRSKWYNSYAVSVKSRITINPDTSKNQFSLQLNSVTPEDTAVYYCARQDGMGGMDSWGQGTLVTVSS
VL: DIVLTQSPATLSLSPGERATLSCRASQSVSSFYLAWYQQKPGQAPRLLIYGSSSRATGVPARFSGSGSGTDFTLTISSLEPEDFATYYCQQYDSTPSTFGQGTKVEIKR
notes: as for B1
B4: TP-2A5.1 Fab (Fab, V domains shown)
VH: QVQLVESGGGLVQPGGSLRLSCAASGFTFSSYGSWVRQAPGKGLEWVSVISGSGSSTYYADSVKGRFTISRDNSKNTLYLQMNSLRAEDTAVYYCARVNISTHFDVWGQGTLVTVSS
VL: DIELTQPPSVSVAPGQTARISCSGDNIPEKYVHWYQQKPGQAPVLVIHGDNNRPSGIPERFSGSNSGNTATLTISGTQAEDEADYYCQSFDAGSYFVFGGGTKLTVLG
notes: as for B1
B5: TP-2A8 Fab (Fab, V domains shown)
VH: QVQLVESGGGLVQPGGSLRLSCAASGFTFRSYGMSWVRQAPGKGLEWVSSIRGSSSSTYYADSVKGRFTISRDNSKNTLYLQMNSLRAEDTAVYYCARKYRYWFDYWGQGTLVTVSS
VL: DIELTQPPSVSVAPGQTARISCSGDNLRNYYAHWYQQKPGQAPVVVIYYDNNRPSGIPERFSGSNSGNTATLTISGTQAEDEADYYCQSWDDGVPVFGGGTKLTVLG
notes: Human Fab from HuCal Gold, expressed in E. coli TG1; also called Fab-2A8
B6: TP-2G5 Fab (Fab, V domains shown)
VH: QVQLQQSGPGLVKPSQTLSLTCAISGDSVSSNSAAWSWIRQSPGRGLEWLGFIYYRSKWYNDYAVSVKSRITINPDTSKNQFSLQLNSVTPEDTAVYYCARHNPDLGFDYWGQGTLVTVSS
VL: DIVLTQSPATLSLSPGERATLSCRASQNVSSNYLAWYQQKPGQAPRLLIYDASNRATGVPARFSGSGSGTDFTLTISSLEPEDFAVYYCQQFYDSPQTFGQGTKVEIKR
notes: as for B1
B7: TP-3D3 Fab (Fab, V domains shown)
VH: QVQLVESGGGLVQPGGSLRLSCAASGFTFSSYASWVRQAPGKGLEWVSGISGDGSNTHYADSVKGRFTISRDNSKNTLYLQMNSLRAEDTAVYYCARYDNFYFDVWGQGTLVTVSS
VL: DIELTQPPSVSVAPGQTARISCSGDSLGSKFAHWYQQKPGQAPVLVIYDDSNRPSGIPERFSGSNSGNTATLTISGTQAEDEADYYCSTYTSRSHSYVFGGGTKLTVLG
notes: as for B1
B8: TP-3C3 Fab (Fab, V domains shown)
VH: QVQLQQSGPGLVKPSQTLSLTCAISGDSVSSNSAAWGWIRQSPGRGLEWLGVIYYRSKWYNDYAVSVKSRITINPDTSKNQFSLQLNSVTPEDTAVYYCARARAKKSGGFDYWGQGTLVTVSS
VL: B1 VL with T30N, N31P, D50A, V51A, Y91L, S92D, G93N, Y94R, P95S, L96I
notes: as for B1
B9: TP-3F2 Fab (Fab, V domains shown)
VH: QVQLVESGGGLVQPGGSLRLSCAASGFTFSSYSMHWVRQAPGKGLEWVSGISYSSSFTYYADSVKGRFTISRDNSKNTLYLQMNSLRAEDTAVYYCARALGGGVDYWGQGTLVTVSS
VL: DIELTQPPSVSVAPGQTARISCSGDNLPSKSVYWYQQKPGQAPVLVIYGDNNRPSGIPERFSGSNSGNTATLTISGTQAEDEADYYCQSWTSRPMVVFGGGTKLTVLG
notes: as for B1
B10: TP-3E1 Fab (Fab, V domains shown)
VH: QVQLVESGGGLVQPGGSLRLSCAASGFTFSNYAMTWVRQAPGKGLEWVSVISSVGSNTYYADSVKGRFTISRDNSKNTLYLQMNSLRAEDTAVYYCARPTKAGRTWWWGPYMDVWGQGTLVTVSS
VL: DIELTQPPSVSVAPGQTARISCSGDNIGSYYAYWYQQKPGQAPVLVIYDDSNRPSGIPERFSGSNSGNTATLTISGTQAEDEADYYCQSYDSTGLLVFGGGTKLTVLG
notes: as for B1
B11: TP-4A7 Fab (Fab, V domains shown)
VH: QVQLVESGGGLVQPGGSLRLSCAASGFTFRNYAMNWVRQAPGKGLEWVSVISGSSSYTYYADSVKGRFTISRDNSKNTLYLQMNSLRAEDTAVYYCARADLPYMVFDYWGQGTLVTVSS
VL: B10 VL with N26A, I27L, Y30K, Y31F, Y33H, N52E, S89A, T93G, G94L, L96Y
notes: as for B1
B12: TP-3H2 Fab (Fab, V domains shown)
VH: QVQLVESGGGLVQPGGSLRLSCAASGFTFNSYYMSWVRQAPGKGLEWVSNISSSGSNTNYADSVKGRFTISRDNSKNTLYLQMNSLRAEDTAVYYCARVHYGFDFWGQGTLVTVSS
VL: DIELTQPPSVSVAPGQTARISCSGDKLGKYYAYWYQQKPGQAPVLVIYGDSKRPSGIPERFSGSNSGNTATLTISGTQAEDEADYYCSSAAFGSTVFGGGTKLTVLG
notes: as for B1

One assay has as its target T1, human tissue factor pathway inhibitor …. The experiment in a line: cell-based or functional assay.
For the molecule B1, the “% inhibition of hTFPI activity” value was 92% and the “dPT in hemoA plasma” value amounted to 68.9 s.

Turning to B2, the “% inhibition of hTFPI activity” value stood at 86% and the “dPT in hemoA plasma” value came out at 62.8 s.

Regarding B3, the “% inhibition of hTFPI activity” value worked out at 63% and the “dPT in hemoA plasma” value is 79.5 s.

Take B4: the “% inhibition of hTFPI activity” value was found to be 30% and the “dPT in hemoA plasma” value is 70.8 s.

For the molecule B5, the “% inhibition of hTFPI activity” value was 100% and the “dPT in hemoA plasma” value stood at 57.9 s.

As for B6, the “% inhibition of hTFPI activity” value was determined as 36% and the “dPT in hemoA plasma” value turned out to be 73.2 s.

The next assay has the same target. The experiment in a line: ELISA, Fab lysate on coated human TFPI. The protocol: (§1) To select antibody clones that bind to human TFPI, Fab genes of the phage clones from the second and third round of panning were subcloned into a bacterial expression vector and expressed in E. coli strain TG1. The bacterial lysate was added to the wells of the human TFPI-coated Maxisorp plates. After washing, HRP-conjugated goat anti-human Fab was used as a detection antibody and the plates were developed by adding AmplexRed (Invitrogen) with hydrogen peroxide. A signal of at least five-fold higher than the background was considered as positive. The cross reactivity of the anti-human TFPI antibodies to mouse TFPI was determined by a similar mouse TFPI-binding ELISA. The plates were coated with mouse TFPI (R&D System), BSA and lysozyme. The later two antigens were used as negative controls.
With B7, the binding result is “binds”.

With B8, the binding result is on record as “binds”.

As to B9, the binding result was “binds”.

Take B10: the binding result was “binds”.

For the molecule B11, the binding result is given as “binds”.

As for B12, the binding result is recorded as “binds”.

The next assay deals with T3, BSA (bovine, UniProt P02769 25-607).
T3 construct: also called bovine serum albumin
T3 sequence (P02769 25-607 limits assumed): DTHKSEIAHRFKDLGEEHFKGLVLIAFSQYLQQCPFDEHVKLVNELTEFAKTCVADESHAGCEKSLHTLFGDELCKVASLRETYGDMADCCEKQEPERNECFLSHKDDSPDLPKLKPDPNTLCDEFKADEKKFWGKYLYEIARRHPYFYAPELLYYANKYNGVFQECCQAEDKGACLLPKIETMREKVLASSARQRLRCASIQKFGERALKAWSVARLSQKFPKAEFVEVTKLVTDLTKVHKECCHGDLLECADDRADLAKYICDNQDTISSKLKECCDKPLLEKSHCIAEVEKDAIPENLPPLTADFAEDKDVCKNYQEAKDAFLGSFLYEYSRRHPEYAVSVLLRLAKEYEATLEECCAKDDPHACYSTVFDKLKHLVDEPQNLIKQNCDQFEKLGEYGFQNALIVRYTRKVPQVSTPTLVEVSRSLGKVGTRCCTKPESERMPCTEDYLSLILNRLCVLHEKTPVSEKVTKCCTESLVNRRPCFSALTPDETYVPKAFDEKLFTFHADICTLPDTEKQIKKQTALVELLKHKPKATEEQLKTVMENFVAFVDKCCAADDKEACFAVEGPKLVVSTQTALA
The experiment in a line: ELISA. The protocol:
as §1
A general note: An ELISA detects its analyte on a solid surface through an enzyme-linked reagent.
Take B7: the binding result is given as “no binding”.

For the molecule B1, the binding result is reported as “no binding”.

Regarding B2, the binding result is “no binding”.

Turning to B8, the binding result is reported as “no binding”.

For the molecule B9, the binding result is reported as “no binding”.

Take B3: the binding result is “no binding”.

For the molecule B4, the binding result is “no binding”.

As to B10, the binding result was “no binding”.

Regarding B11, the binding result is on record as “no binding”.

On to B5, for which the binding result is “no binding”.

For B12, the binding result is reported as “no binding”.

In the case of B6, the binding result was “no binding”.

The next assay addresses T1, human tissue factor pathway inhibitor …. The experiment in a line: ELISA, Fab on coated TFPI. The protocol:
as §1
(§2) Purified Fab antibodies were used to determine EC₅₀ of anti-TFPI antibodies to human or mouse TFPI. EC₅₀ was assessed in an ELISA, similarly as described above. The results were analyzed using SoftMax. The binding affinity of anti-TFPI antibodies was determined in a Biacore assay. Briefly, the antigen, either human or mouse TFPI, was immobilized on the CM5-chips using the amine coupling kit (GE HealthCare) according to the instructions of the manufacturer. The amount of immobilized TFPI was adjusted to the mass of the antigen to give approximate 300 RU. The antibody Fabs were analyzed in mobile phase and at least five different concentrations (0.1, 0.4, 1.6, 6.4 and 25 nM) of the purified antibodies were used in the Biacore assay. The kinetics and binding affinity were calculated using Biacore T100 Evaluation software.
B1 came in with an EC50 of 59 nM.

Molecule B2 came in with an EC50 of 0.48 nM.

Take B3: the EC50 is 2.18 nM.

In the case of B4, the EC50 is 28.6 nM.

Regarding B5, a half-maximal response (EC50) required 0.09 nM.

The molecule B6 returned an EC50 of 343 nM.

The next assay has as its target T2, mouse tissue factor pathway inhibitor …. The experiment in a line: ELISA, Fab on coated TFPI. The protocol: as §1, §2
The molecule B1 returned an EC50 of 957 nM.

For B2, the EC50 stood at 5.18 nM.

As for B3, the EC50 came to 32.4 nM.

B4 yielded an EC50 of 14.5 nM.

B5 gave an EC50 of 0.06 nM.

For the molecule B6, the 50% effective concentration (EC50) stood at 871 nM.

The next assay has as its target T1, human tissue factor pathway inhibitor …. The experiment in a line: Biacore, TFPI on CM5 chip, Fab in mobile phase. How it is done:
as §2
Molecule B1 displayed a Kd of 17.1 nM.

Regarding B2, binding was put at a Kd of 5.06 nM.

Molecule B3 gave a Kd of 10.2 nM.

On to B4, for which binding was characterised by a dissociation constant (Kd) of 35.4 nM.

In turn, B5 gave a Kd of 1.25 nM.

For the molecule B6, binding was characterised by a dissociation constant (Kd) of 42.1 nM.

In the next assay the target is T2, mouse tissue factor pathway inhibitor …. The experiment in a line: Biacore, TFPI on CM5 chip, Fab in mobile phase. The protocol:
as §2
In general terms: Surface plasmon resonance follows binding to a sensor surface in real time, without labels.
Turning to B1, the Kd was 28.5 nM.

In the case of B2, binding was put at a Kd of 46.1 nM.

For the molecule B3, binding was put at a Kd of 11.5 nM.

As to B4, binding was put at a Kd of 19.6 nM.

As for B5, the Kd amounted to 3.08 nM.

B6: the Kd worked out at 16.1 nM.

A word on the EC50: it is the concentration needed to bring the measured effect to its halfway point. High values mean lower potency in that assay, low ones higher potency in that assay. As usually defined, the Kd is the constant that tells how readily two partners part at equilibrium. Higher therefore signals lower affinity.
